Reference: patent US6660492B1, “Chimeric serine proteases” (Boehringer Mannheim GmbH, priority 1997, dated 2003)

Assays:
Assay type in all cases: biochemical
Conditions in all cases: pH 8.0, RT, 405 nm
[1] = Activity determination and kinetic constants with chromogenic substrate Chromozym X
Method: (§1) The activity of the renatured activated rFXTa proteases was determined with the chromogenic substrates Chromozym® X (N-methoxycarbonyl-D-Nle-Gly-Arg-pNA, Boehringer Mannheim GmbH, Mannheim, Cat. No. 789763), Chromozym® U (Bz-β-Ala-Gly-Arg-pNA, Boehringer Mannheim GmbH, Mannheim, Cat. No.836583), Chromozym® PK (Bz-Pro-Phe-Arg-pNA, Boehringer Mannheim GmbH, Mannheim, Cat. No. 378445) and Chromozym® TH (Tosyl-Gly-Pro-Arg-pNA, Boehringer Mannheim GmbH, Mannheim, Cat. No. 838268) in comparison with recombinant rFXa (rFX-EGF2-AP-CD; preparation and description see PCT/EP97/03027) and native human trypsin (Sigma-Aldrich Chemie GmbH, Deisenhofen, Germany, Cat. No. T6424). Abbreviations: Bz, benzoyl; pNA, p-nitroaniline.
(§2) 10-100 μl sample was filled up to 200 μl with 190-100 μl 50 mmol/l Tris-HCl, 150 mmol/l NaCl, 5 mmol/l CaCl2, 0.1% PEG 8000, pH 8.0 and 20 μl Chromozym® X, U, PK and TH (0.5-40 mmol/l) were added to and measured against a reagent blank value in an ELISA reader at a wavelength of 405 nm and RT. The activity and the kinetic constants were determined from the linear initial slope according to the Michaelis Menten equation.

[2] = Activity determination and kinetic constants with chromogenic substrate Chromozym U
Method: as §1, §2

[3] = Activity determination and kinetic constants with chromogenic substrate Chromozym PK
Method: as §1, §2

[4] = Activity determination and kinetic constants with chromogenic substrate Chromozym TH
Method: as §1, §2

## trypsin: native human trypsin (Sigma-Aldrich, Cat. No. T6424)
[1]
  Km: 43 µM
  kcat: 153 s⁻¹
[2]
  Km: 208 µM
  kcat: 225 s⁻¹
[3]
  Km: 17 µM
  kcat: 38 s⁻¹
[4]
  Km: 13 µM
  kcat: 95 s⁻¹
